Assay results published in patent US20150258192A1, “COMPOSITIONS AND METHODS FOR PREVENTING OR TREATING CHRONIC LUNG ALLOGRAFT DYSFUNCTION (CLAD) AND IDIOPATHIC PULMONARY FIBROSIS (IPF)” (priority 2014, published 2015).
No end group written: not given here.

Key:
Test in all cases: Kinase Profiling Assay
Assay type in all cases: biochemical
Conditions in all cases: peptide 100 μM
[1] = biological target: T1, DRAK1(h) (Homo sapiens, UniProt Q9UEE5)
T1 sequence (Q9UEE5 1-414): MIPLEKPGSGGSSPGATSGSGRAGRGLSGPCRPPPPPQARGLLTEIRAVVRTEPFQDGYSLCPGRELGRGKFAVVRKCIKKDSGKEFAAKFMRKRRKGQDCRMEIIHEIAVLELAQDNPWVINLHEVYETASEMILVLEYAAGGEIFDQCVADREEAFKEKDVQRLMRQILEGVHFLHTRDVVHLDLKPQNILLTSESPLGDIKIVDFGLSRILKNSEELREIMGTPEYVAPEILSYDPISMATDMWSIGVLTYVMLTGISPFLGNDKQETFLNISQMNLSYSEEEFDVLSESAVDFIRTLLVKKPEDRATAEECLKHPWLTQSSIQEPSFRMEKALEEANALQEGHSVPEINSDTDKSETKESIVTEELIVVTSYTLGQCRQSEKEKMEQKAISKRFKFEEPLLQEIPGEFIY
Summary of the method: (§1)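 Radiometric filter-binding format: cationic substrate takes up labeled phosphate from ATP unless the inhibitor peptide blocks the kinase. Substrate bound to an anionic filter, scintillation-counted, normalized to 100% activity control. Duplicates; part of a 266-kinase selectivity panel for MK2 peptides.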

[2] = biological target: T2, GSK3α(h) (Homo sapiens, UniProt P49840)
T2 construct: purchased Millipore
T2 sequence (P49840 whole entry): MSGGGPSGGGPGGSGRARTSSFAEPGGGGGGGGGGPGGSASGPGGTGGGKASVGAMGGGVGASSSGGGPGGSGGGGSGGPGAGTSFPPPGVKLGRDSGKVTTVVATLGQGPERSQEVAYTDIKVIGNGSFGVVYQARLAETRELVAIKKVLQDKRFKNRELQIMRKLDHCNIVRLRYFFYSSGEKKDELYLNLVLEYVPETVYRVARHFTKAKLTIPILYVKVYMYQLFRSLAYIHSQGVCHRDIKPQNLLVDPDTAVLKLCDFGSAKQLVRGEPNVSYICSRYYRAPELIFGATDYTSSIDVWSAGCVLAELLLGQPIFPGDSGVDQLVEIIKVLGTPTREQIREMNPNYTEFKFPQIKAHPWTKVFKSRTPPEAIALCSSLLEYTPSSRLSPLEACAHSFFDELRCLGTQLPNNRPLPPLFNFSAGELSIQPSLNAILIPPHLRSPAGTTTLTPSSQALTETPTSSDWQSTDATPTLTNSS
Summary of the method: as §1

[3] = biological target: PRK2(h) (Homo sapiens, UniProt Q16513)
Summary of the method: as §1

[4] = biological target: T3, TAO1(h) (Homo sapiens, UniProt Q7L7X3)
T3 construct: purchased Millipore
T3 sequence (Q7L7X3 1-1001): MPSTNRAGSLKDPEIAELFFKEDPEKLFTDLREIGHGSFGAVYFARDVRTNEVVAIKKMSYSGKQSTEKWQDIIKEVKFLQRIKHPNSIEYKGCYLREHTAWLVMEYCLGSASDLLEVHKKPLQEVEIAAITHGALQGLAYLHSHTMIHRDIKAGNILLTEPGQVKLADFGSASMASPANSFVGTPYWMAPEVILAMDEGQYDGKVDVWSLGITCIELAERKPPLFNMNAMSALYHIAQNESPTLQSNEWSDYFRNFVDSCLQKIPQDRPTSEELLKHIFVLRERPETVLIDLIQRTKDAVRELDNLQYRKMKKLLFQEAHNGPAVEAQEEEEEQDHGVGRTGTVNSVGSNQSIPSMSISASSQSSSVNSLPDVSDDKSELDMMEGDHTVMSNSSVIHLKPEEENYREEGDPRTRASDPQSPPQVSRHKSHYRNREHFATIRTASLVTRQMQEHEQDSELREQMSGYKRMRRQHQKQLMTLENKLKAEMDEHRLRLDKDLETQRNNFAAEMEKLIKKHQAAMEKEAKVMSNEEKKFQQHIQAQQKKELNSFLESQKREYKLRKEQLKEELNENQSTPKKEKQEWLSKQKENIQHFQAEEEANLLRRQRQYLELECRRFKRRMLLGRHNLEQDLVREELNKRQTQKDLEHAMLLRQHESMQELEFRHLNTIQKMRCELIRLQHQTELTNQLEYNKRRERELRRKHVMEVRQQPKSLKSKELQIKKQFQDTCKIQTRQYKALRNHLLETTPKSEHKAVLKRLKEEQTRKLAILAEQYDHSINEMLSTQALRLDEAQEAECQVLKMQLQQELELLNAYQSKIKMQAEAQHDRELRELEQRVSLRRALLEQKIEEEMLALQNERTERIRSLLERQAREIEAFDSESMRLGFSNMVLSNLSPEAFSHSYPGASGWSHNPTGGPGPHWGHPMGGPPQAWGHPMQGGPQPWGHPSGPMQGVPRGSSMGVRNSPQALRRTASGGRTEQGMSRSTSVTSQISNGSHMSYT
Summary of the method: as §1

[5] = biological target: T4, TBK1(h) (Homo sapiens, UniProt Q9UHD2)
T4 construct: purchased Millipore
T4 sequence (Q9UHD2 1-729): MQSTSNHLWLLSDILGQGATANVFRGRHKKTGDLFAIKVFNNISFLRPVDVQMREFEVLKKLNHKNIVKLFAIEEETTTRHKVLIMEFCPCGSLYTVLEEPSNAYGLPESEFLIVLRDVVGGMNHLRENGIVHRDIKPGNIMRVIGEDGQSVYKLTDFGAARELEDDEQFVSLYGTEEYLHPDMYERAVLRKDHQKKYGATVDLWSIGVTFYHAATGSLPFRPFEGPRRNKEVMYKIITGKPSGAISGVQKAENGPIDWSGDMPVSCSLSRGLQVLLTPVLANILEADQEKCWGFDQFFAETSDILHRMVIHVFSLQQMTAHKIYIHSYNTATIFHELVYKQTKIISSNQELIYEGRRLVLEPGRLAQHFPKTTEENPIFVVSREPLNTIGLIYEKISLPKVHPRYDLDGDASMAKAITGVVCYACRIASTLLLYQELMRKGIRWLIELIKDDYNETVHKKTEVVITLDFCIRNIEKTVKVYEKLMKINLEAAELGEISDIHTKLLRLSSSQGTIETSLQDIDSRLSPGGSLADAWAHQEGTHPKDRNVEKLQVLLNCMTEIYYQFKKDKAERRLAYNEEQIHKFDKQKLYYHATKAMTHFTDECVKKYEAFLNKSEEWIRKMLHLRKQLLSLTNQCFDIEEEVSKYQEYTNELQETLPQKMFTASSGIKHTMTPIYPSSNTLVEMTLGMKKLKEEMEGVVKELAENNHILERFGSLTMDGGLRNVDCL
Summary of the method: as §1

[6] = biological target: TrkB(h) (Homo sapiens, UniProt Q16620)
Summary of the method: as §1

[7] = biological target: ACK1(h) (Homo sapiens, UniProt Q07912)
Chain of ACK1(h) (Q07912 whole entry): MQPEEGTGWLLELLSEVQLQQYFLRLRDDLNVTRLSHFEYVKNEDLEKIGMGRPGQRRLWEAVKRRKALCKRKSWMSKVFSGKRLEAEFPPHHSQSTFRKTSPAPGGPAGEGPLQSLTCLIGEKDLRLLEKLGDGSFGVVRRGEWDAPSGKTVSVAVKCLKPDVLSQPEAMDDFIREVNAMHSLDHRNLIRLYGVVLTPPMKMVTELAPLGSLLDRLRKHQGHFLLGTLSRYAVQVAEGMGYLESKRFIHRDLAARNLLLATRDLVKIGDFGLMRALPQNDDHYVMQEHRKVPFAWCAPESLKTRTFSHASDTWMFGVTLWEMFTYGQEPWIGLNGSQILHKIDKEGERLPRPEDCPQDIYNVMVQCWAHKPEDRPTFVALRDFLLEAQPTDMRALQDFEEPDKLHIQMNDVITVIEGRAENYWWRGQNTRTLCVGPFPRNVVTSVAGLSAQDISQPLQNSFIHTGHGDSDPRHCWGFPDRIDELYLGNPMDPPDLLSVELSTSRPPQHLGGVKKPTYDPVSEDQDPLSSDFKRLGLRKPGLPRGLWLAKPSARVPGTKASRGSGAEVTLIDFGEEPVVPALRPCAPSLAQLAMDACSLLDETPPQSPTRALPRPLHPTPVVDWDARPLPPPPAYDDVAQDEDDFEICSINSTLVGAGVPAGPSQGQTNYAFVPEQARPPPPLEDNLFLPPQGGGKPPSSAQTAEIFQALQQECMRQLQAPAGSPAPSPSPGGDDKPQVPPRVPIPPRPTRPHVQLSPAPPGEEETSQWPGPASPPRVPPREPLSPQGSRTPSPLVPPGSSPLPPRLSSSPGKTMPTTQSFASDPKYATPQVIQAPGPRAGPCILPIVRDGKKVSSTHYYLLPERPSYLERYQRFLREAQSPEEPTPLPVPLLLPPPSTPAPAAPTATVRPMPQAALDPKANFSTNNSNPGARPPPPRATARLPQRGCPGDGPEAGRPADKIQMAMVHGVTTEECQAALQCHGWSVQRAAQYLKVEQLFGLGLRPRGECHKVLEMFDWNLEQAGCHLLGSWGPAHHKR
Summary of the method: as §1

[8] = biological target: BTK(h) (Homo sapiens, UniProt Q06187)
Chain of BTK(h) (Q06187 whole entry): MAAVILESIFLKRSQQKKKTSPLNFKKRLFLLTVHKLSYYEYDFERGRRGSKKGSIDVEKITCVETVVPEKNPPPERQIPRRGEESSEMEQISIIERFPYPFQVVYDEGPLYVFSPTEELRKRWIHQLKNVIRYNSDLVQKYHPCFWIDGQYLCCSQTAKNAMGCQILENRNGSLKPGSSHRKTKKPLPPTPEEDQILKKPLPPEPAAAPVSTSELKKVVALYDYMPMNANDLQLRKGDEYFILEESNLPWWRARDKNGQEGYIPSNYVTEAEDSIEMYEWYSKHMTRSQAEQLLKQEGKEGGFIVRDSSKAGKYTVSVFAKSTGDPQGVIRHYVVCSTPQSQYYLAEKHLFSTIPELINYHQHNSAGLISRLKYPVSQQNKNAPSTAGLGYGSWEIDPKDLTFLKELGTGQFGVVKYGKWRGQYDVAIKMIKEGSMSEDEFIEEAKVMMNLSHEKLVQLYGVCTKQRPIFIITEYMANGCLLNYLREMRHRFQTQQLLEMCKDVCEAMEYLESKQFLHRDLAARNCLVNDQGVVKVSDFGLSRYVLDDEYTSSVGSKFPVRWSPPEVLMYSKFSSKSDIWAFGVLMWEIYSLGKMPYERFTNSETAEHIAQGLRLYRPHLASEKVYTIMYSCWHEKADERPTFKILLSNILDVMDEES
Summary of the method: as §1

[9] = biological target: FAK(h) (Homo sapiens, UniProt Q05397)
Chain of FAK(h) (Q05397 whole entry): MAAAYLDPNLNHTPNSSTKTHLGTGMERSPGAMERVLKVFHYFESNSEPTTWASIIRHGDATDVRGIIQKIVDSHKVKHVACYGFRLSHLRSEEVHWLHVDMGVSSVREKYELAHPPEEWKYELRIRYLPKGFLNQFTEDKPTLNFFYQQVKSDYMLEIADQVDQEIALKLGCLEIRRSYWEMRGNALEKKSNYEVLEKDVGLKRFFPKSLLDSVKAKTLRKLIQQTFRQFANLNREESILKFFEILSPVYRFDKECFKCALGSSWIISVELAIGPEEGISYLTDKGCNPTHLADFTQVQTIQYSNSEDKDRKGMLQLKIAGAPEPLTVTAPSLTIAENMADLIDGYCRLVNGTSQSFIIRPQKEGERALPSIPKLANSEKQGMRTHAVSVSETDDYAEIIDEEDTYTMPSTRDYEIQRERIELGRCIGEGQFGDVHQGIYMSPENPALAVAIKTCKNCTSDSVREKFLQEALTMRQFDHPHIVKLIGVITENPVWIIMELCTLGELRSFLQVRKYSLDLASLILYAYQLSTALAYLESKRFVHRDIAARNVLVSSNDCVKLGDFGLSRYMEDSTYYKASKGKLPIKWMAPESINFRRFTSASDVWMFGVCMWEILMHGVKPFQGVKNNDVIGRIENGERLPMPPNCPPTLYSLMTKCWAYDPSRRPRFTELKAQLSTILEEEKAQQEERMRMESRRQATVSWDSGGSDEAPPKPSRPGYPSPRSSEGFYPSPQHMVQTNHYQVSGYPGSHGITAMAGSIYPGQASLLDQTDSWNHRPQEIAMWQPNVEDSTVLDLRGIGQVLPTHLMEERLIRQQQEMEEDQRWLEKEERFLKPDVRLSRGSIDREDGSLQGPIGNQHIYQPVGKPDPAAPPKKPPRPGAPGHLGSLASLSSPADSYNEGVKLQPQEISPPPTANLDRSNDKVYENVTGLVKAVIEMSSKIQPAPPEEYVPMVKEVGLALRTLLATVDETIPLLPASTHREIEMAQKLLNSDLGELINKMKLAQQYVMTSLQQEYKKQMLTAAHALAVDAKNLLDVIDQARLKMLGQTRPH
Summary of the method: as §1

[10] = biological target: T5, SRPK2(h) (Homo sapiens, UniProt P78362)
T5 construct: purchased Millipore
T5 sequence (P78362 whole entry): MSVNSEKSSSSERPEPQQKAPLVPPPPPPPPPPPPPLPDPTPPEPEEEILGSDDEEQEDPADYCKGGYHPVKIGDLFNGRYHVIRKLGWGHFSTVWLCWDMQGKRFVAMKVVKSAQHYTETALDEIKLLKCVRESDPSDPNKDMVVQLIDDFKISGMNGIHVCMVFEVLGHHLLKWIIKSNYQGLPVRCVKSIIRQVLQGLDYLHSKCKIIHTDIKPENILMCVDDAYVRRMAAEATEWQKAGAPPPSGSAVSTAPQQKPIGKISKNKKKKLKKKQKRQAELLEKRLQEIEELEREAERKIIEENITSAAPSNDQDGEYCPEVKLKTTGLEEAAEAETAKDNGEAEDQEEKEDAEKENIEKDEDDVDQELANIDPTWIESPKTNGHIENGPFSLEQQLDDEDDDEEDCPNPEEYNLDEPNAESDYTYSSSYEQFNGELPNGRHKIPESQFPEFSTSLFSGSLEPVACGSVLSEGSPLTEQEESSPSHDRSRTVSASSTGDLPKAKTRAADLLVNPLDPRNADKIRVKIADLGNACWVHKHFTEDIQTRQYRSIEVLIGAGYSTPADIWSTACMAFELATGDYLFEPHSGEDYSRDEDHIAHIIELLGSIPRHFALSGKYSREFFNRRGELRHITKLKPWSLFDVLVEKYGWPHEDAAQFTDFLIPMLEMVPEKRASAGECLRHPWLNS
Summary of the method: as §1

[11] = biological target: TLK2(h) (Homo sapiens, UniProt Q86UE8)
Chain of TLK2(h) (Q86UE8 whole entry): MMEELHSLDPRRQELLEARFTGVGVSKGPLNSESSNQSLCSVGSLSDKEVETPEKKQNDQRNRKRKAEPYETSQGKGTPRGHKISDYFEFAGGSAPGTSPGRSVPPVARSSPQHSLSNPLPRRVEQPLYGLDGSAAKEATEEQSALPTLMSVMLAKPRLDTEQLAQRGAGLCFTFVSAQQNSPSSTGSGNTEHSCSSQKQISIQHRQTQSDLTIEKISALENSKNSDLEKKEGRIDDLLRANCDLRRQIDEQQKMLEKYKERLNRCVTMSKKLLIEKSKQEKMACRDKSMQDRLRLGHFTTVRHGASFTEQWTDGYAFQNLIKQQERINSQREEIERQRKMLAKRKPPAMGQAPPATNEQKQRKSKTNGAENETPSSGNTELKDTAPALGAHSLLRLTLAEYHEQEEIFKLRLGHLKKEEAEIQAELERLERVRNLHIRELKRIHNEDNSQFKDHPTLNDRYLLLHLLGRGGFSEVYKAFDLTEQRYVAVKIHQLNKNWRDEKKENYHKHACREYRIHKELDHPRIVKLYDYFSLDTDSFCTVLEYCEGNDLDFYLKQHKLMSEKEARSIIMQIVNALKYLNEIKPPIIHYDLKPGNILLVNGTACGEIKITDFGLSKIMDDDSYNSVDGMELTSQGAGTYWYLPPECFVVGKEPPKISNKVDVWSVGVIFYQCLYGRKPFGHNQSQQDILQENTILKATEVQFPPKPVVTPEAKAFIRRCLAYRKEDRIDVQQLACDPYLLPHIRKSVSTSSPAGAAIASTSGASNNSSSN
Summary of the method: as §1

Sequence	% activity [1] [%]	% activity [2] [%]	% activity [3] [%]	% activity [4] [%]	% activity [5] [%]	% activity [6] [%]	% activity [7] [%]	% activity [8] [%]	% activity [9] [%]	% activity [10] [%]	% activity [11] [%]
FAKLAARLYRKALARQLGVAA [MMI-0300]	14	157	33	82	37	5					
HRRIKAWLKKIKALARQLGVAA (Mammal) [MMI-0500]	8	175	7	24	16	12	64	18	94	80	133
KAFAKLAARLYRKALARQLGVAA [MMI-0400]	14	164	27	73	39	8	95	94	96	97	151
YARAAARQARAKALARQLGVAA [MMI-0100]	47		72	99		4				92	
YARAAARQARAKALNRQLGVA (Mammal) [MMI-0200]	34		74		98	7	97	100	110	100	129
